In PMC9882245:

Biological target: NLuc-CLR:RAMP3 (N-terminally nanoluciferase-tagged CLR co-expressed with RAMP3; AM2 receptor) (human) (UniProt Q16602)
Assay: FRET or BRET

NLuc-CLR:RAMP3 (N-terminally nanoluciferase-tagged CLR co-expressed with RAMP3; AM2 receptor) (human), sequence (Q16602 23-461, chain 1 of 2): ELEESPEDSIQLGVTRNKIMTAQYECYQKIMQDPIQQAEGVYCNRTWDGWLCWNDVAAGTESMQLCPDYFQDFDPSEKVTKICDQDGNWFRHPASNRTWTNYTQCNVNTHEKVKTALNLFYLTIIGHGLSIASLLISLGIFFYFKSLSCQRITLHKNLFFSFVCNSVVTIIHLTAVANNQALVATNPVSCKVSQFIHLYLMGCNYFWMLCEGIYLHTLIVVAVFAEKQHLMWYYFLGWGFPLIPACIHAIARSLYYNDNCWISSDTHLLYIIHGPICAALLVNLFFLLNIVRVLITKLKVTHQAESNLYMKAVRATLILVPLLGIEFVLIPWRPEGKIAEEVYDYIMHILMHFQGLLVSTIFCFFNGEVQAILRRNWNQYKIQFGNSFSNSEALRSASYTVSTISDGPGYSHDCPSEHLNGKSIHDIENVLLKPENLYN
NLuc-CLR:RAMP3 (N-terminally nanoluciferase-tagged CLR co-expressed with RAMP3; AM2 receptor) (human), sequence (O60896 24-148, chain 2 of 2, further chain): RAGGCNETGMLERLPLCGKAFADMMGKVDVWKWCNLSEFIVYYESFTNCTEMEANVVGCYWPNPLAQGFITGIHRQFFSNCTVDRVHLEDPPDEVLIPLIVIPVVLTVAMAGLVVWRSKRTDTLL

Substance | Kd | dissociation half-life, fast component | dissociation half-life, slow component | half-life (t1/2) from the off-rate of the association kinetics analysis
AM-TAMRA (adrenomedullin labeled with TAMRA on a Lys substituted at N40) (peptide) | 26 nM | 0.75 min | 6.9 min | 2.5 min
AM2/IMD-TAMRA (adrenomedullin 2/intermedin labeled with TAMRA on a Lys substituted at D35) (peptide) | 7 nM | 7 min | 76 min | 21 min
